Test results from PMC12404759, “Efficacy and safety of a therapeutic humanized FSH-blocking antibody in obesity and Alzheimer’s disease models” (The Journal of Clinical Investigation, 2025).

Legend:
[1] = target: T1, follicle-stimulating hormone (FSH) (Homo sapiens (Human)., UniProt P01215;P01225); assay: protein thermal shift assay; antibody incubated with FSH; right-shift in melting temperature (Tm) of the ligand-binding Fab domain; settings: both partners purified
T1 construct: FSH alpha subunit (FSHα, glycoprotein hormones alpha chain); FSH beta subunit (FSHβ); Heterodimeric hormone
T1 sequence (P01215 25-116, chain 1 of 2): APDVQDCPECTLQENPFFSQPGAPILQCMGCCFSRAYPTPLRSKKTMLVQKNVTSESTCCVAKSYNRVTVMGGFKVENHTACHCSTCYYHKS
T1 sequence (P01225 19-129, chain 2 of 2): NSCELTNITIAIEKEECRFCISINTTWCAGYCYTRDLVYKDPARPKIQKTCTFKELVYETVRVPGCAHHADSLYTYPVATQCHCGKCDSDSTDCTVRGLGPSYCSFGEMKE

[2] = target: T1, follicle-stimulating hormone (FSH); assay: cell-based or functional assay

EC50 based on UCP1 activation in dedifferentiated brown adipocytes (Thermo cells) [2]: 3.21 nM
IC50 for cAMP inhibition in SH-SY5Y human neuroblastoma cells [2]: 2.01 nM
IC50 of inhibition of cAMP elevation in response to FSH (5 μg/mL) in KGN human ovarian cancer cells [2]: 0.64 nM
B1: MS-Hu6 (antibody, V domains shown)
VH: QVQLQESGPGLVKPSQTLSLTCTVSGFSITSDYAWNWIRQPPGKGLEWIGSIFSSGSINYNPSLKSRVTISRDTSKNQFSLKLSSVTAADTAVYYCARGGTGTDYWGQGTLVTVSS
VL: DIQMTQSPSSLSASVGDRVTITCRASQDISNYLSWYQQKPGKAIKLLIYYTSRLHSGVPSRFSGSGSGTDYTLTISSLQPEDFATYFCQQGHTLPPTFGGGTKVEIK
notes: humanized VH and CH1; heavy chain of the Fab fragment (Hu6-Fab) deposited as PDB 8VZW; hinge and Fc of the full-length IgG; humanized VL and CL; light chain of the Fab fragment (Hu6-Fab) deposited as PDB 8VZW; the chimeric precursor used human IgK-CL; Full-length humanized IgG derived from the murine antibody Hf2 with the CDRs unaltered; The crystal was of the Fab fragment only
right-shift in Tm of the Fab domain [1]: ~1.8 °C
